In test [1] the target is T1, GST-fused full length SerRS (human, UniProt P49591 1-514).
T1 construct: also called GST-SerRS FL; pGEX6P-1-SerRS
Kind of test: pull-down; GST-fusion proteins bound to beads incubated with 0.5 uM purified recombinant His6-tagged protein in 500 ul GST pulldown buffer (150 mM NaCl, 20 mM HEPES pH 7.9, 0.5 mM EDTA, 0.1% Triton X-100, 10% glycerol, 1 mM DTT) overnight at 4 °C; washed 5 times; western blot with anti-His or anti-GST. Particulars: both partners purified. A general note: In western blotting, separated proteins are transferred to a membrane and probed.

In test [2] the target is T2, purified His6-tagged SerRS (human, UniProt P49591 1-514).
T2 construct: also called recombinant SerRS; PET-20b-SerRS
T2 sequence (P49591 whole entry): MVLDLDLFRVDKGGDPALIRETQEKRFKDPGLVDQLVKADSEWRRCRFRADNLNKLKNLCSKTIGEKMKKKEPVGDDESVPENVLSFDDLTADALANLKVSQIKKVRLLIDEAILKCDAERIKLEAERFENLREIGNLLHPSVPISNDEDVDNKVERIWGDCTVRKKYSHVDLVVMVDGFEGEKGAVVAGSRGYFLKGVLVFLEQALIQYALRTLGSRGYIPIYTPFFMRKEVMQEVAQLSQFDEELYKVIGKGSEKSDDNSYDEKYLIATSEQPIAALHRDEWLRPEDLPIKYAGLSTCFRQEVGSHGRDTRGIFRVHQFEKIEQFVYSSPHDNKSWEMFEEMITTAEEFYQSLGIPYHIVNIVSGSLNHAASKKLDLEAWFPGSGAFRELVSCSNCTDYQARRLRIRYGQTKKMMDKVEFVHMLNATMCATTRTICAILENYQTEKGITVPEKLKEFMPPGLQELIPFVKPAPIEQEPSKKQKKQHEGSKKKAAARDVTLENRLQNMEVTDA
Described as above. Particulars: both partners purified.

T1 sequence (P49591 whole entry, the tested form may be a part): as the sequence (P49591 whole entry) above

B1: recombinant POT1 with a His6 tag at its C-terminal end (natural protein, human, UniProt Q9NUX5 1-634, looked up)
chain: MSLVPATNYIYTPLNQLKGGTIVNVYGVVKFFKPPYLSKGTDYCSVVTIVDQTNVKLTCLLFSGNYEALPIIYKNGDIVRFHRLKIQVYKKETQGITSSGFASLTFEGTLGAPIIPRTSSKYFNFTTEDHKMVEALRVWASTHMSPSWTLLKLCDVQPMQYFDLTCQLLGKAEVDGASFLLKVWDGTRTPFPSWRVLIQDLVLEGDLSHIHRLQNLTIDILVYDNHVHVARSLKVGSFLRIYSLHTKLQSMNSENQTMLSLEFHLHGGTSYGRGIRVLPESNSDVDQLKKDLESANLTANQHSDVICQSEPDDSFPSSGSVSLYEVERCQQLSATILTDHQYLERTPLCAILKQKAPQQYRIRAKLRSYKPRRLFQSVKLHCPKCHLLQEVPHEGDLDIIFQDGATKTPDVKLQNTSLYDSKIWTTKNQKGRKVAVHFVKNNGILPLSNECLLLIEGGTLSEICKLSNKFNSVIPVRSGHEDLELLDLSAPFLIQGTIHHYGCKQCSSLRSIQNLNSLVDKTSWIPSSVAEALGIVPLQYVFVMTFTLDDGTGVLEAYLMDSDKFFQIPASEVLMDDDLQKSVDMIMDMFCPPGIKIDAYPWLECFIKSYNVTNGTDNQICYQIFDTTVAEDVI
notes: also called His6-tagged POT1; pET-20b-POT1; not shown: His6, C-terminal, kept
For B1, the binding result in test [1] is on record as “binds”.

B2: GST-fused full-length POT1 (natural protein, human, UniProt Q9NUX5 1-634, looked up)
chain: B1 chain
notes: Held on beads in the GST pull-down; also called GST-POT1 FL; pGEX6P-1-POT1; not shown: GST, N-terminal, kept
Regarding B2, the binding result in test [2] is recorded as “binds”.
